Measurements from patent US20140093496A1 (Chugai, published 2014).
Positions count from the first letter of the chain named. Names and notes keep the numbering of the source. One block for each binder: values may come before it.

Tests used:
[1] = biological target: T1, FcγRIIb extracellular domain with C-terminal His tag (human, UniProt P31994 43-217); test: SPR, FcγR bound/antibody captured
T1 construct: extracellular domain; also called FcgRIIb; FcγRIIb extracellular region; not shown: His tag at the C terminus
T1 sequence (looked up): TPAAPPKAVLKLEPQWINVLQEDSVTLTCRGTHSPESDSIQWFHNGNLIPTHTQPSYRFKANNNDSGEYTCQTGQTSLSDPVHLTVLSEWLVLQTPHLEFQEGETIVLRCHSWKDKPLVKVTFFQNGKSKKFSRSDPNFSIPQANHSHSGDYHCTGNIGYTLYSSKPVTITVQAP
Excerpt: (§1) IL6R-L (SEQ ID NO: 22) was utilized as a common antibody L chain for all of the antibodies. These variants were expressed, purified, and expressed by the method of Reference Example 1. […] Interactions of each PD variant with FcγRIIa type R and FcγRIIb were comprehensively evaluated by the method of Reference Example 2.
(§2) With regard to the results of analyzing the interaction with the respective FcγRs, a figure was produced according to the following method.

[2] = biological target: T2, FcγRIIa type R extracellular domain with C-terminal His tag (human, UniProt P12318 34-217); test: SPR, FcγR bound/antibody captured
T2 chain: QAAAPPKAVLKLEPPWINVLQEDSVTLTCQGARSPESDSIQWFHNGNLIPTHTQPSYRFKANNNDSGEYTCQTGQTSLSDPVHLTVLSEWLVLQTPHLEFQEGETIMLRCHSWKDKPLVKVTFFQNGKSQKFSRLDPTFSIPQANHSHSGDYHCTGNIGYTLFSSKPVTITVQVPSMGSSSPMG
Excerpt: as §1, §2

[3] = biological target: T3, FcγRIa extracellular domain, C-terminal His tag (human, UniProt P12314 16-292); test: SPR (Biacore), antibody captured, FcγR as analyte
T3 construct: the whole entry is named; also called FcgRIa; CD64A; not shown: His tag at the C terminus
T3 sequence (P12314 16-292): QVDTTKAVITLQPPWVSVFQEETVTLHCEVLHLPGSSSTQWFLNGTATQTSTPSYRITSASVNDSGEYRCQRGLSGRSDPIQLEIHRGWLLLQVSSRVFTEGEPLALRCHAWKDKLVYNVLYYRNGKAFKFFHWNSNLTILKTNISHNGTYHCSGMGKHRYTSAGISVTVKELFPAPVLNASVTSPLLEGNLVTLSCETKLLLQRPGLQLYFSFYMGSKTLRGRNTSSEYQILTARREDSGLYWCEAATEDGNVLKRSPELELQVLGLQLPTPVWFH
Excerpt: (§3) Furthermore, KD(IIaR)/KD(IIb) and KD(IIaH)/KD(IIb) in the table respectively represent the value obtained by dividing the KD value of each variant for FcγRIIaR by the KD value of each variant for FcγRIIb, and the value obtained by dividing the KD value of each variant for FcγRIIaH by the KD value of each variant for FcγRIIb. KD(IIb) of the parent polypeptide/KD(IIb) of the altered polypeptide refers to the value obtained by dividing the KD value of the parent polypeptide for FcγRIIb by the KD value of each variant for FcγRIIb.
(§4) Kinetic analyses for calculating the KD values of each altered antibody for FcγR were performed according to the following method. First, antibodies of interest were captured onto the above-mentioned sensor chips, and an Fcγ receptor diluted with the running buffer was allowed to interact. The Biacore Evaluation Software was used to globally fit the measured results to the obtained sensorgram using the 1:1 Langmuir binding model, and the association rate constant ka (L/mol/s) and the dissociation rate constant kd (1/s) were calculated; and from those values the dissociation constants KD (mol/L) were calculated.

[4] = biological target: T4, FcγRIIa type R extracellular domain, C-terminal His tag (human, UniProt P12318 34-217); test: SPR (Biacore), antibody captured, FcγR as analyte
T4 construct: extracellular domain; also called FcgRIIaR; FcγRIIaR; not shown: His tag at the C terminus
T4 sequence (looked up): T2 chain
Excerpt: as §3, §4

[5] = biological target: T1, FcγRIIb extracellular domain with …; test: SPR (Biacore), antibody captured, FcγR analyte
Excerpt: as §3, with “respectively show” for “respectively represent”, “to a” for “to the”
as §4

[6] = biological target: T5, FcγRIIIa type V extracellular domain with C-terminal His tag (human, UniProt P08637 17-208); test: SPR (Biacore), antibody captured, FcγR analyte
T5 construct: extracellular domain; also called FcγRIIIaV; FcgRIIIaV; not shown: His tag at the C terminus
T5 sequence (P08637 17-208 F176V): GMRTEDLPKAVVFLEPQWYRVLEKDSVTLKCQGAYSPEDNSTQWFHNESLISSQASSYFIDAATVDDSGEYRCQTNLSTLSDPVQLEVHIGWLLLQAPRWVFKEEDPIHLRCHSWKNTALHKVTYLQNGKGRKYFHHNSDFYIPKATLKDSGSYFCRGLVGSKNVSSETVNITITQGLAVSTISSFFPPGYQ
Excerpt: as §3, with “respectively show” for “respectively represent”, “to a” for “to the”
as §4

[7] = biological target: T2, FcγRIIa type R extracellular domain …; test: SPR (Biacore), antibody captured, FcγR analyte
Excerpt: as §3, with “respectively show” for “respectively represent”, “to a” for “to the”
as §4

[8] = biological target: T6, FcγRIIa type H extracellular domain with C-terminal His tag (human, UniProt P12318 34-217); test: SPR (Biacore), antibody captured, FcγR analyte
T6 construct: extracellular domain; also called FcγRIIa H; FcγRIIaH; not shown: His tag at the C terminus
T6 sequence (looked up): T2 chain with R134H
Excerpt: as §3, with “respectively show” for “respectively represent”, “to a” for “to the”
as §4

[9] = biological target: T7, FcγRIa extracellular domain with C-terminal His tag (human, UniProt P12314 16-292); test: SPR (Biacore): antibody captured on the chip, FcγR as analyte; amount bound per amount captured, relative to GpH7-B3/GpL16-k0 without mutation = 100
T7 construct: whole entry named; also called FcgRIa; CD64A; not shown: His tag at the C terminus
T7 sequence (P12314 16-292): as the sequence (P12314 16-292) above
Excerpt: (§5) B3 variants were expressed and purified using the method of Reference Example 1, and the binding to each FcγR (FcγRIa, FcγRIIa type H, FcγRIIa type R, FcγRIIb, and FcγRIIIa) was comprehensively evaluated using the method of Reference Example 2.
(§6) Figures were produced based on the results of interaction analysis with each FcγR by the method below. […] The value obtained by multiplying this value by 100 was used as an indicator of the relative FcγR-binding activity of each variant.

[10] = biological target: T1, FcγRIIb extracellular domain with …; test: as above
Excerpt: as §5, §6

[11] = biological target: T8, FcγRIIIa extracellular domain with C-terminal His tag (allotype not given) (human, UniProt P08637 17-208); test: SPR (Biacore): antibody captured on the chip, FcγR as analyte; amount bound per amount captured, relative to GpH7-B3/GpL16-k0 without mutation = 100; FcγR concentration not shown
T8 construct: extracellular domain; also called CD16A; not shown: His tag at the C terminus
T8 sequence (P08637 17-208): as the sequence (P08637 17-208 F176V) above, with V160F counted along it
Excerpt: as §5, §6

[12] = biological target: T6, FcγRIIa type H extracellular domain …; test: SPR (Biacore): antibody captured on the chip, FcγR as analyte; amount bound per amount captured, relative to GpH7-B3/GpL16-k0 without mutation = 100
Excerpt: as §5, §6

B1: IL6R-F652/IL6R-L (antibody, human IgG1, kappa)
heavy: QVQLQESGPGLVKPSETLSLTCAVSGHSISHDHAWSWVRQPPGEGLEWIGFISYSGITNYNPSLQGRVTISRDNSKNTLYLQMNSLRAEDTAVYYCARSLARTTAMDYWGEGTLVTVSSASTKGPSVFPLAPSSKSTSGGTAALGCLVKDYFPEPVTVSWNSGALTSGVHTFPAVLQSSGLYSLSSVVTVPSSSLGTQTYICNVNHKPSNTKVDKKVEPKSCDKTHTCPPCPAPELLGGDSVFLFPPKPKDTLYISRTPEVTCVVVDVSHEDPEVKFNWYVDGVEVHNAKTKPREEQYNSTYRVVSVLTVLHQDWLNGKEYKCKVSNKALPAPIEKTISKAKGQPREPQVYTLPPSRDELTKNQVSLTCLVKGFYPSDIAVEWESNGQPENNYKTTPPVLDSDGSFFLYSKLTVDKSRWQQGNVFSCSVMHEALHYHYTQKSLSLSP
light: not shown
notes: IL6R-F11 with P238D; copies: 2 + 2
relative FcγRIIb-binding activity [1]: 100 % of IL6R-F652/IL6R-L | relative FcγRIIaR-binding activity [2]: 100 % of IL6R-F652/IL6R-L

B2: IL6R-2B172/IL6R-L (antibody, human IgG1, kappa)
heavy: B1 heavy with Y254M, V325M, Y436N, K441E
light: not shown
notes: IgG1; P238D/V323M (EU numbering) introduced into IL6R-B3
Kd [3]: 0.003 µM | Kd [4]: 6.1 µM

B5: IL6R-PD079/IL6R-L (antibody, human IgG1, kappa)
heavy: B1 heavy with G239A
light: not shown
notes: IL6R-F11 with P238D/G237A; copies: 2 + 2
Kd [5]: 3 µM | Kd [6]: 37 µM | Kd [7]: 32 µM

B6: IL6R-BP119/IL6R-L (antibody, human IgG1, kappa)
heavy: B1 heavy with Y254M, K328M, Y436N, K441E
light: not shown
notes: IgG1; P238D/K326M (EU numbering) introduced into IL6R-B3
Kd [3]: 0.007 µM | Kd [4]: 9.9 µM

B7: IL6R-BP106/IL6R-L (antibody, human IgG1, kappa)
heavy: B1 heavy with Y254M, H270D, Y436N, K441E
light: not shown
notes: IgG1; P238D/H268D (EU numbering) introduced into IL6R-B3
Kd [3]: 0.004 µM | Kd [4]: 11 µM

B8: IL6R-PD042/IL6R-L (antibody, human IgG1, kappa)
heavy: B1 heavy with L236W
light: not shown
notes: IL6R-F11 with P238D/L234W; copies: 2 + 2
Kd [5]: 2 µM | Kd [6]: 37 µM | Kd [7]: 16 µM

B9: B3 variant of GpH7-B3/GpL16-k0 with mutation A (Pro at position 238 (EU numbering) substituted with Asp) (antibody, human IgG1, kappa)
heavy: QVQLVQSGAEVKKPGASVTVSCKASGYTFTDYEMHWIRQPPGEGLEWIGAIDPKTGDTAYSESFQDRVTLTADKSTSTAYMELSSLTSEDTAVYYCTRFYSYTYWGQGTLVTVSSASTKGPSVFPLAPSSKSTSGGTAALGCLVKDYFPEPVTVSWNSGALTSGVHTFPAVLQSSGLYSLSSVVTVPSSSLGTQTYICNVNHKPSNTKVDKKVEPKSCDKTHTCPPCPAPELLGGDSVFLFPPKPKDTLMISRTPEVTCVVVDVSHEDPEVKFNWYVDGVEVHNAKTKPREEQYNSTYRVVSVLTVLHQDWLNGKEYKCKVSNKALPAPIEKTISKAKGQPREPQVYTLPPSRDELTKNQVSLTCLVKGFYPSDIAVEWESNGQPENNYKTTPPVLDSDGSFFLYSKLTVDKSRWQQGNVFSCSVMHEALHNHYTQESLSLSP
light: DIVMTQSPLSLPVTPGEPASISCQASESLVHSNRNTYLHWYLQKPGQSPQLLIYKVSNRFSGVPDRFSGSGSGTDFTLKISRVEAEDVGVYYCSQNTHVPPTFGQGTKVEIERTVAAPSVFIFPPSDEQLKSGTASVVCLLNNFYPREAKVQWKVDNALQSGNSQESVTEQDSKDSTYSLSSTLTLSKADYEKHKVYACEVTHQGLSSPVTKSFNRGEC
notes: copies: 2 + 2
binding result [9]: binds | binding result [10]: binds | binding result [11]: no binding

More lines, now with the values ahead:

Kd [5]: 2 µM | Kd [6]: 43 µM | Kd [7]: 21 µM
B3: IL6R-PD080/IL6R-L (antibody, human IgG1, kappa)
heavy: B1 heavy with G239D
light: not shown
notes: IL6R-F11 with P238D/G237D; copies: 2 + 2

Kd [8]: 20 µM | Kd [6]: 37 µM | Kd [7]: 22 µM
B4: IL6R-PD087/IL6R-L (antibody, human IgG1, kappa)
heavy: B1 heavy with G239M
light: not shown
notes: IL6R-F11 with P238D/G237M; copies: 2 + 2

binding result [9]: binds | binding result [12]: binds | binding result [10]: binds
B10: B3 variant of GpH7-B3/GpL16-k0 with mutation B (Leu at position 328 (EU numbering) substituted with Glu) (antibody, human IgG1, kappa)
heavy: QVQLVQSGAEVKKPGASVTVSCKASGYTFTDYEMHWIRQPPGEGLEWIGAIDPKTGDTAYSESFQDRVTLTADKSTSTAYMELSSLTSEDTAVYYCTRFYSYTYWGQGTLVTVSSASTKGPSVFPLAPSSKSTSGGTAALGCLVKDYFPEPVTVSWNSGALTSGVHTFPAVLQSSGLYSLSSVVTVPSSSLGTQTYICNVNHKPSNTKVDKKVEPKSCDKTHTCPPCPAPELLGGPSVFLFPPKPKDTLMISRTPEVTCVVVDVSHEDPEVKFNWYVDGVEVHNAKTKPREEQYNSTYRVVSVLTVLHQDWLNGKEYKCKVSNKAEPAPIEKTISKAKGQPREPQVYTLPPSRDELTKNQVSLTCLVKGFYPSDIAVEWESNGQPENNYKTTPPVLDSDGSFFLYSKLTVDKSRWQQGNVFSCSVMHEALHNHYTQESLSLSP
light: B9 light
notes: copies: 2 + 2
